Each block holds one binder with its values, some of them ahead of it.
Assays:
[1] = target: coagulation factor X, P00742
coagulation factor VIIa [2] = target: T1, coagulation factor VIIa (UniProt P08709 61-466, Gla (gamma-carboxyglutamate) domain mentioned; positions not given); test: apparent Kd; TF-dependent enhancement of factor VIIa enzymatic activity as readout for complex formation
T1 construct: also called FVIIa
T1 sequence (looked up): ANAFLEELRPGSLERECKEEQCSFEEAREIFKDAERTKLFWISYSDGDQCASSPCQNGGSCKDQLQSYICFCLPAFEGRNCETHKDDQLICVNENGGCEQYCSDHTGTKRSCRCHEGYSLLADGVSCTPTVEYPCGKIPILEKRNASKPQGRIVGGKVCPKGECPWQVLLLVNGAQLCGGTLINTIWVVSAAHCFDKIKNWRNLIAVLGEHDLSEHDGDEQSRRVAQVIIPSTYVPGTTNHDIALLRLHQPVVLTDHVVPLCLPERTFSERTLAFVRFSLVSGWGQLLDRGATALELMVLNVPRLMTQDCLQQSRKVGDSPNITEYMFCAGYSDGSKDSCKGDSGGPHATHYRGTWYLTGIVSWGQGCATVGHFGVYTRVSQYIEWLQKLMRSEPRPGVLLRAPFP

coagulation factor VIIa [3] = target: T1, coagulation factor VIIa; test: TF-dependent enhancement of factor VIIa enzymatic activity as readout for complex formation
coagulation factor VIIa [4] = target: T1, coagulation factor VIIa; test: listed in Table 2 of binding constants for TF:VIIa complexes; method for this row not stated
coagulation factor X = target: T2, coagulation factor X (UniProt P00742 41-488, Gla (gamma-carboxyglutamate) domain mentioned; positions not given); test: SPR (Biacore 3000), Nanodiscs immobilized on NTA chip via His tag of MSP1, factor X flowed over
T2 construct: Substrate of the TF:VIIa complex
T2 sequence (P00742 41-488 limits assumed): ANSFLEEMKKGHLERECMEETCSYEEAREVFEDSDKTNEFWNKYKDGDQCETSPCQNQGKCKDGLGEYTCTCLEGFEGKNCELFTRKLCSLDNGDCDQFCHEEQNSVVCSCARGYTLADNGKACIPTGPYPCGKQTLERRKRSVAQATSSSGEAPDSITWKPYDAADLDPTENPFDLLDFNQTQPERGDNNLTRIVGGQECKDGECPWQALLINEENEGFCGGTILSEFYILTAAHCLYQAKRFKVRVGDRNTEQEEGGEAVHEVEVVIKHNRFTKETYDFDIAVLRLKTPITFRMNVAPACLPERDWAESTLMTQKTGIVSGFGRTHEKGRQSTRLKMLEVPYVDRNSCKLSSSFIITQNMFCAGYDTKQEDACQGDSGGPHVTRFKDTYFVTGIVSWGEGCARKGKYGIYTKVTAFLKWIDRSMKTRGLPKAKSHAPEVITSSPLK

Sequence of coagulation factor X, P00742 (P00742 whole entry, looked up): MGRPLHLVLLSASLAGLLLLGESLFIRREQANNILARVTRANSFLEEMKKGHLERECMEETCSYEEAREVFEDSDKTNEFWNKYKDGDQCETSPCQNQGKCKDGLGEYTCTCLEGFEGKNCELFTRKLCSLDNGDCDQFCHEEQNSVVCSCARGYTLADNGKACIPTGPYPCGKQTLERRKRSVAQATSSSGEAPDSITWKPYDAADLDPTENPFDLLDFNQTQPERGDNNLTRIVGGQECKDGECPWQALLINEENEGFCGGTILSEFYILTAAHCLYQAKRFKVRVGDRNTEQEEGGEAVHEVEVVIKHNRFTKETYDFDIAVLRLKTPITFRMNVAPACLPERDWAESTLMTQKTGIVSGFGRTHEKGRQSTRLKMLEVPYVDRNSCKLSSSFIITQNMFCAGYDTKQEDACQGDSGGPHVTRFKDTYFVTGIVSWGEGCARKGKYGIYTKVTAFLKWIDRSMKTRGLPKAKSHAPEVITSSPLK

B1: rTF:VIIa complex on PCPS vesicles (TF-liposomes, 20% PS, 80% PC) (protein)
chain 1: AEDQVDPRLIDGKSGTTNTVAAYNLTWKSTNFKTILEWEPKPVNQVYTVQISTKSGDWKSKCFYTTDTECDLTDEIVKDVKQTYLARVFSYPAGNVESTGSAGEPLYENSPEFTPYLETNLGQPTIQSFEQVGTKVNVTVEDERTLVRRNNTFLSLRDVFGKDLIYTLYYWKSSSSGKKTAKTNTNEFLIDVDKGENYCFSVQAVIPSRTVNRKSTDSPVECMGQEKGEFREIFYIIGAVVFVVIILVIILAISLHK
chain 2: T1 sequence (looked up)
Km (factor X activation by TF:VIIa) [1]: 0.0202 µM | Km, app (factor X activation by rTF:VIIa) [1]: 0.0202 µM

B2: TF:VIIa complex on TF-Nanodiscs 10% PS, 90% PC (protein)
chain 1: B1 chain 1
chain 2: T1 sequence (looked up)
chain 3: MGHHHHHHIEGRLKLLDNWDSVTSTFSKLREQLGPVTQEFWDNLEKETEGLRQEMSKDLEEVKAKVQPYLDDFQKKWQEEMELYRQKVEPLRAELQEGARQKLHELQEKLSPLGEEMRDRARAHVDALRTHLAPYSDELRQRLAARLEALKENGGARLAEYHAKATEHLSTLSEKAKPALEDLRQGLLPVLESFKVSFLSALEEYTKKLNTQ
Km (factor X activation by TF:VIIa) [1]: 0.132 µM

B3: rTF:VIIa complex on rTF-PCPS-nanoscale discs (TF-Nanodiscs 20% PS, 80% PC) (protein)
chain 1: B1 chain 1
chain 2: T1 sequence (looked up)
chain 3: B2 chain 3
Km (factor X activation by TF:VIIa) [1]: 0.0686 µM | Km, app (factor X activation by rTF:VIIa) [1]: 0.0686 µM

Kd (coagulation factor VIIa [2]): 0.0264 nM | Kd (coagulation factor VIIa [3]): 0.0264 nM
B4: rTF in PCPS vesicles (20 mol % PS, 80 mol % PC; PL:rTF 8700:1) (receptor)
chain: B1 chain 1
notes: Recombinant truncated human tissue factor from E. coli (not glycosylated), reconstituted into PCPS liposomes by the Bio-Bead method; also called TF-liposomes; rTF in phospholipid vesicles

B5: TF:VIIa complex on TF-Nanodiscs 30% PS, 70% PC (protein)
chain 1: B1 chain 1
chain 2: T1 sequence (looked up)
chain 3: B2 chain 3
Km (factor X activation by TF:VIIa) [1]: 0.0452 µM

Kd (coagulation factor VIIa [4]): ~3 nM
B6: soluble tissue factor (extracellular domain of TF) (receptor, UniProt P13726 33-251, looked up)
chain: SGTTNTVAAYNLTWKSTNFKTILEWEPKPVNQVYTVQISTKSGDWKSKCFYTTDTECDLTDEIVKDVKQTYLARVFSYPAGNVESTGSAGEPLYENSPEFTPYLETNLGQPTIQSFEQVGTKVNVTVEDERTLVRRNNTFLSLRDVFGKDLIYTLYYWKSSSSGKKTAKTNTNEFLIDVDKGENYCFSVQAVIPSRTVNRKSTDSPVECMGQEKGEFRE
notes: extracellular domain; also called sTF

binding result (coagulation factor X): no binding (tested: 1 µM)
B7: Nanodiscs containing 100% POPC (no TF) (other)
chain: B2 chain 3
notes: Control discs immobilized on an NTA Biacore chip; Their only protein is MSP1; also called POPC Nanodiscs

— patent US20090047356A1 (published 2009)
